Test results: patent publication US20130052670A1 (MERCK, published 2013)

How the values were obtained:
[1] = target: T1, Aβ oligomers (ADDLs, amyloid-β derived diffusible ligands) prepared from Aβ42 (UniProt P05067 672-713); experiment: one-sided ELISA, plate coated with Aβ oligomers (50 pmol/well), 19.3 titrated, anti-human IgG-AP, luminescence
T1 construct: domain: amyloid β peptide 1-42; Heterogeneous mixture of multimers; number of chains not defined; Concentrations are calculated on the Aβ monomer molecular weight (MW 4513); also called ADDL species of Aβ oligomers; Aβ oligomer standards
Procedure: (§1) Next day, plates were washed five times with PBS+0.05% Tween-20 and blocked overnight with Casein blocking buffer (Thermo Scientific, Waltham, Mass.) and 0.05% Tween-20. […] After two hours at room temperature incubation, the plates were washed and alkaline phosphatase conjugated anti-human IgG (ThermoScientific, Waltham, Mass.) was added at 0.08 μg/ml. After incubation for 45 minutes at room temperature, the plates were washed and Tropix CDP star (Applied Biosystems, Foster City, Calif.) was added. Luminescence was detected after 30 minutes on an EnVision® plate reader (PerkinElmer, Waltham, Mass.). Curve fits were completed using GraphPad Prism (GraphPad Software, Inc., San Diego, Calif.) software.

[2] = target: T2, Aβ40 monomer (amyloid β peptide 1-40) (UniProt P05067 672-711); experiment: one-sided ELISA, plate coated with Aβ40 monomer (100 pmol/well), 19.3 titrated, anti-human IgG-AP, luminescence
T2 construct: domain: amyloid β peptide 1-40; also called monomeric Aβ40; Aβ monomer
Procedure: as §1

[3] = target: T1, Aβ oligomers (ADDLs, amyloid-β derived …); experiment: one-sided ELISA on coated plates
Procedure: as §1

T1 sequence (P05067 672-713 limits assumed): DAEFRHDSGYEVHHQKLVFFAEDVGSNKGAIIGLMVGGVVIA
T2 sequence (P05067 672-711 limits assumed): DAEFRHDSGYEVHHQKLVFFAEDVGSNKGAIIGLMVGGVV

B1: anti-Aβ oligomer antibody 19.3 (antibody, V domains shown)
VH: EVQLVESGGGLVQPGGSLRLSCAASGFTFSSFGMHWVRQAPGKGLEWVAYISRGSSTIYYADTVKGRFTISRDNAKNSLYLQMNSLRAEDTAVYYCARGITTALDYWGQGTLVTVSS
VL: DVVMTQSPLSLPVTPGEPASISCRSSQSIVHSNGNTYLEWYLQKPGQSPQLLIYKASNRFSGVPDRFSGSGSGTDFTLKISRVEAEDVGVYYCFQGSRLGPSFGQGTKLEIK
notes: In the sandwich assays it was coated on plates or covalently coupled to paramagnetic micro-particle beads; not shown: human immunoglobulin kappa light chain constant region
- EC50 [1]: 1.6 nM
- EC50 [2]: 4.3 nM
- fold greater potency than for Aβ40 monomer [3]: ~3.7 fold
